Measured values from the supplement of paper PMC10724198.
± gives the standard deviation of the averaged measurements.

Test system: Saccharomyces cerevisiae
Test: protein stability index of tFT-peptide fusion (C-terminal peptide) (PSI (0-1 scale)); higher = more stable (slower turnover)
Details: genetic background: wild type; temperature: 30 C
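Also: PSI is a weighted mean of sequencing reads over stability bins, variants kept only with over 10 reads, mCherry proximal and sfGFP distal, peptide attached via GGGS linker.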

Sequence	protein stability index
PPPPHPPSPSLP	0.664 ± 0.1
PPPPHTPPLPRS	0.757 ± 0.048
PPPPLLPRTPPH	0.54 ± 0.044
PPPPLLPSPFPP	0.653 ± 0.031
PPPPLPATPGAS	0.6857 ± 0.0018
PPPPLPPPPSPL	0.653 ± 0.078
PPPPLPPRPPPP	0.704 ± 0.026
PPPPLPRPPPPP	0.615 ± 0.061
PPPPLSLPPVPL	0.736 ± 0.012
PPPPLVPLPASP	0.688 ± 0.072
PPPPPAPPALPP	0.6734 ± 0.001
PPPPPAPPLSLP	0.61 ± 0.01
PPPPPARPSVPP	0.673 ± 0.077
PPPPPASPPSAP	0.605 ± 0.063
PPPPPDAPRSSL	0.7043 ± 0.0066
PPPPPHPALPVP	0.734 ± 0.016
PPPPPIPRPPHA	0.73 ± 0.03
PPPPPLPLCRRP	0.756 ± 0.06
PPPPPLPLPPPF	0.697 ± 0.023
PPPPPLPPAPPP	0.558 ± 0.022
PPPPPLPPLPCP	0.695 ± 0.03
PPPPPLPPPPTP	0.652 ± 0.058
PPPPPLPPQLSH	0.756 ± 0.011
PPPPPLPSPTPP	0.735 ± 0.024
PPPPPLPTPPPS	0.653 ± 0.036
PPPPPLSPPSLV	0.725 ± 0.02

Sequence	protein stability index
PPPPPPCSPATS	0.747 ± 0.14
PPPPPPLPPPPL	0.671 ± 0.019
PPPPPPLSVPPL	0.695 ± 0.077
PPPPPPPHHSPP	0.722 ± 0.047
PPPPPPPPPSPP	0.704 ± 0.0066
PPPPPPPPPVLP	0.675 ± 0.0081
PPPPPPPSLLLP	0.828 ± 0.041
PPPPPPPTPPPP	0.673 ± 0.014
PPPPPPRPLAPS	0.679 ± 0.029
PPPPPPRPPSAH	0.708 ± 0.087
PPPPPPRPPSSP	0.694 ± 0.022
PPPPPPSLPPPS	0.714 ± 0.015
PPPPPPSLPYLL	0.771 ± 0.042
PPPPPPSPLTLP	0.775 ± 0.086
PPPPPSAPSPLP	0.665 ± 0.05
PPPPPSPPPPPH	0.704 ± 0.0074
PPPPPYPPCIPL	0.695 ± 0.048
PPPPRDPLPLPR	0.677 ± 0.018
PPPPRPAPSAPY	0.676 ± 0.045
PPPPRPASPGSP	0.622 ± 0.065
PPPPRPLPLPTT	0.751 ± 0.056
PPPPRPLPTSRP	0.689 ± 0.012
PPPPRPPPALLP	0.736 ± 0.021
PPPPRPPPQSPS	0.724 ± 0.021
PPPPRRAPPPGT	0.699 ± 0.021
PPPPRSPPHPLL	0.69 ± 0.013

Sequence	protein stability index
PPPPRSPVCLPL	0.792 ± 0.011
PPPPSLPPPSRP	0.7125 ± 0.0063
PPPPSPGPASPA	0.716 ± 0.045
PPPPSTRPSYSP	0.756 ± 0.23
PPPPTALPHPDL	0.604 ± 0.012
PPPPTPHRSPLL	0.598 ± 0.029
PPPPTQPPARPP	0.68 ± 0.014
PPPPTRSRRNLP	0.705 ± 0.047
PPPPVPPLYLPP	0.684 ± 0.017
PPPRLAPTLLPA	0.5999 ± 0.0046
PPPRPDPPSLLD	0.545 ± 0.0085
PPPRPHTPPQLA	0.708 ± 0.019
PPPRPPLALSPP	0.646 ± 0.032
PPPRPPRPPCPF	0.732 ± 0.059
PPPRPSPLSSSL	0.678 ± 0.094
PPPRRPPSPPSP	0.729 ± 0.021
PPPRTPGCPIPP	0.5737 ± 0.0032
PPPSLPATPIPP	0.656 ± 0.055
PPPSPAPCPPSS	0.777 ± 0.043
PPPSPDPPLTPF	0.723 ± 0.06
PPPSPFLPSPFR	0.7066 ± 0.0061
PPPSPPPLPDPH	0.697 ± 0.079
PPPSPPSPHAPP	0.643 ± 0.1
PPPSRPLLPFPP	0.706 ± 0.012
PPPSRTPPLNPR	0.741 ± 0.096
PPPSSILSPSTS	0.659 ± 0.046

Sequence	protein stability index
PPPSSPPPLPLP	0.681 ± 0.017
PPPTAPPTTTTR	0.696 ± 0.055
PPPTAPSLSSPS	0.688 ± 0.047
PPPTPPRPPPLP	0.7059 ± 0.0022
PPPTPRIPRPLR	0.717 ± 0.02
PPPTPRRPPCHT	0.668 ± 0.045
PPPTVRLSCVPP	0.794 ± 0.031
PPPVLPPPPVSP	0.719 ± 0.03
PPPVLSPRFPVL	0.731 ± 0.14
PPPVRFPSLPLA	0.8189 ± 0.0061
PPPVVLPSTLLS	0.6665 ± 0.0014
PPRAHQSCPCRR	0.719 ± 0.055
PPRALPPPLPLP	0.72 ± 0.083
PPRCHPPPPFPP	0.6466 ± 0.0047
PPRGCLYFSRPP	0.739 ± 0.095
PPRGPPPPPADP	0.7 ± 0.022
PPRHPSPGLVPT	0.722 ± 0.04
PPRLLATVTRGT	0.654 ± 0.025
PPRLVPPLPPPL	0.635 ± 0.048
PPRPAPTSFKRG	0.718 ± 0.037
PPRPPPLLPRTL	0.707 ± 0.014
PPRPPPPPPAPL	0.688 ± 0.019
PPRPPPPRPPPL	0.742 ± 0.028
